Positions count from the first letter of the chain named.

T1: Ovalbumin (UniProt P01012 2-386)
T1 sequence: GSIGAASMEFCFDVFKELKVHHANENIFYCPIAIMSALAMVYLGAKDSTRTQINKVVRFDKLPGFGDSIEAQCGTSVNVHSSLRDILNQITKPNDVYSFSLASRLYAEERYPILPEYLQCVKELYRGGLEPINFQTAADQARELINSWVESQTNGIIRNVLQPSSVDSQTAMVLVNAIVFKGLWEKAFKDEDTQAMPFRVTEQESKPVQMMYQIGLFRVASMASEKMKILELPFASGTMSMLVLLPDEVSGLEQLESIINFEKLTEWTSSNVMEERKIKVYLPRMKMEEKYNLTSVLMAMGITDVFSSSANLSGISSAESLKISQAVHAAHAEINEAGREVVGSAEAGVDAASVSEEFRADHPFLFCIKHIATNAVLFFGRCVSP

B1: g060g04 (Fab, V domains shown)
VH: EVQLVQSGPGLVKPSETLSLTCAVSGASVSGGDYYWSWIRQPPGKALEWIGYIYYIGSTNYNPSLKSRLSLSVDTAKSQFSLKLSSVTAADTAIYFCARARRTYSGYDSAFDYWGQGTLVTVS
VL: DVVMTQSPSSLSASVGDRVSITCRASRSVKTYLNWYQQKPGKAPKLLVYGSSSLESGVPSRFSGSGSGTDFTLTISSLQPEDFATYYCQQSFGTPYTFGQGTKLDTK
B2: g060h04 (Fab, V domains shown)
VH: B1 VH with I94T
VL: B1 VL with Y87C, T106I
B3: g060a09 (Fab, V domains shown)
VH: GRAQVQLQESGPEVKKPGASVKVSCKASGYTFNSYGIAWVRQVPGQGLEWMGWISPYSGHTNYAEKVQGRVTMTTDTATSTACMELTSLRSDDTAVYFCARDYSSPYHFDYWGQGTWSPSR
VL: LADVVMTQSPSSLSASVGDRVTISCRASQPISTYLNWYQQKPGKAPKILIFGASRLQSGVPSRFSGSGSGTDFSLTITSLQPEDFATYICQQSKSPPYNFGRGTKLEIK
B4: g060e05 (Fab, V domains shown)
VH: QVQLVESGAEVKKPGSSVKVSCKSSGGYVFSWVRQAPGQGLEWMGGIISNFRTAEYARKFQGRVTMTADTSTNTIYMELTSLTSEDTAVYFCVSAPRDTSTIAARFNRYFFDTWGQGTLVTVS
VL: EIVLTQSPGTLSLSPGERATLSCRASRSVNSNNLAWYQQKPDQAPRLLMYGASSRATGIPDRFTGSGSGTDFTLTISRLEPEDFAVYYCHQYGASDNTFGQGTKLEIK
B5: g060g09 (Fab, V domains shown)
VH: B4 VH with Q1K, E6Q, R52H, R58Q
VL: B4 VL with N30Y
B6: g060a02 (Fab, V domains shown)
VH: QVQLQQSGGGLVKPGGSLRLSCAASGFTFSSYSMNWVRQAPGKGLEWVSSISSSSSYIYYADSVKGRFTISRDNAKNSLYLQMNSLRAEDTAVYYCARRPGWAATRAAGAFDIWGQGTMVTVS
VL: EIVLTQSPSSLSASVGDRVTITCRASQGISNYLAWYQQKPGKVPKLLIYAASTLQSGVPSRFSGSGSGTDFTLTISSLQPEDVATYYCQKYNSAPYTFGQGTKLEIK
B7: g060d11 (Fab, V domains shown)
VH: KVQLVQSGAEVKKPGESLKISCQASGYGFTVYWIGWVRQPPGKGLEWLGIIYPGDSDTRYNPSFQGQVTISADKSVSTTYLQWSSLKASDTAIYYCARHLDSYDVFTGYNLGGYMDVWGKGTLVTVS
VL: ETTLTQSPGTLSLSPGERATLSCRASQSVSTNYLAWYRQKPGQAPRLLIHGASSRATGIPDRFSGSGSGTDFTLTISRLEPEDFAVYFCQQYGSSPQTFGQGTRLEIK
B8: g060f03 (Fab, V domains shown)
VH: QVQLVQSGGGLVKPGGSLRLSCAASGFTFSNAWMSWVRQAPGKGLEWVGHVKSMTDGGTTDYAAPVKGRFTISRDDSENTLYLQMNSLKTDDTAVYYCTTHDYWGQGTLVTVS
VL: EIVMTQSPPFLSASVGDRVTITCRASQGLSTYLAWYQVKPGKAPKLLIYAASTLQSGVPSRFSGSGSGTEFTLTINSLQPEDFATYYCQQLDTYPLTLGGGTKVEIK
B9: g060f01 (Fab, V domains shown)
VH: QVQLQQSGGGVVQPGRSLRLSCAASGFAFRDYAMHWVRQAPGKGLEWMGVISFNGDQIFYADSMKGRFTISRENSKNTLHLRMNSLRPEDTAVYYCARARLLFCSGGRCDMDSWGQGTLVTVS
VL: EIVMTQSPSFLSASVGDRVTITCRASQDIITYLAWYQQKPGKAPEVLIFGASTLQSGVPSRFSGSGSGTEFTLTISSLQPEDFATYYCQQIIRYPRTFGQGTRVEIK
B10: g060a11 (Fab, V domains shown)
VH: KVQLVESGGGLVKPGGSLRLSCVVSGFPLNRYTMNWVRQAPGKGLEWLSSISSTSSYIYYADSVKGRFTISRDNAKNSLFLQMNSLRADDTALYFCASGNTHDYWGQGTLVTVS
VL: DVVMTQSPSSLSASVGDRVTITCRASQSININLNWFQQKPGKAPNLLIYSASTLQTGVPSRFSGSGSGTEFTLTISSLQPEDFATYYCQQIYSHVRTFGQGTKVEIK
B11: g060c12 (Fab, V domains shown)
VH: B10 VH with E6Q, T33I, A40T, V64A, D89E, A92G, F95Y
VL: B10 VL with D1E, V2I, M4L, I21T, A25T, N30F, N45K, H94Q
B12: g060a10 (Fab, V domains shown)
VH: QITLKESGPTLVKPTQTLTLTCTLSGFSLYTTGVGVGWIRQPPGKALEWLARIYWDDDERYNPSLKSRLTITKDASKNQVVLKMTNMDPVDTATYYCARTMGVVLPFDYWGQGTLVTVS
VL: EIVLTQSPSTLSASVGDRVTITCRASQSIGSWLAWYQQKPGKAPKLLIYKASTLQSETPSRFRGSGSGTEFTLTISSLQPDDFATYYCQQFNSFSPWTFGQGTKVEFK
B13: g060d03 (Fab, V domains shown)
VH: QMQLVQSGAEVKKPGTSVRVSCKTSGGYVFSWVRQAPGQGPEWMGGIITNFGTTNYAQKFQGRVTITADKSTNTVYMDLSNLTSEDTAVYYCARAPRGTSTIAARFNRYFFDSWGQGTLVTVS
VL: DIQMTQSPGTLSLSPGERATLSCRASQSVNSDNLAWYQQKPGQAPRLLMSGATSRATDVPDRFSGSGSGTDFTLTISRLEPEDFAVYYCHQYGSSDNTFGQGTKLEIK
B14: g060b05 (Fab, V domains shown)
VH: B13 VH with M2V, P14L, S25P, Q58R, V64I, I66V, T83A
VL: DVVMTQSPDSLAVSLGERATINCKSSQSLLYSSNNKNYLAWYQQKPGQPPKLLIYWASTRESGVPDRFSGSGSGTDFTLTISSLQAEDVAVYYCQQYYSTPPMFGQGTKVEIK
B15: g060b07 (Fab, V domains shown)
VH: B13 VH with Q1E, M2V, Q6E, N50S, N55S, S71A, N81D, V89I, R94K
VL: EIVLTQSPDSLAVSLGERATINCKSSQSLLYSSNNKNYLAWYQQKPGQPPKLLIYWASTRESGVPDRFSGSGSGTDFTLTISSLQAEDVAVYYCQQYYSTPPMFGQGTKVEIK
B16: g060f04 (Fab, V domains shown)
VH: B13 VH with Q1K, M2V, S25P, Q58R, V64I, I66V, T83A
VL: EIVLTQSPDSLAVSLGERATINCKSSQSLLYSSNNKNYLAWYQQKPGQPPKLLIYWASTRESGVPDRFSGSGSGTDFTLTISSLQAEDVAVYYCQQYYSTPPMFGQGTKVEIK
B17: g060f08 (Fab, V domains shown)
VH: B13 VH with Q1K, M2V
VL: B13 VL with I2V, Q3V, V59I
B18: g060d07 (Fab, V domains shown)
VH: B13 VH with Q1E, M2V, S25P, Q58R, V64I, I66V, T83A
VL: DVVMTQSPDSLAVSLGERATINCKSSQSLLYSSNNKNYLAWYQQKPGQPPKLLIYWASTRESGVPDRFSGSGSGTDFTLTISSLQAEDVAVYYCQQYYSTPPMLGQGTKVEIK
B19: g060b09 (Fab, V domains shown)
VH: QVQLQESGPTLVKPTQTLTLTCSFSGFSLGTTGVNVGWIRQPPGKALEWLALISWDGGKHYSPSLNSRITLTKDASREQVVVPTMTNMDPADTGRYYCARIVGTHGFDYWGQGTLVTVS
VL: EIVLTQSPSFLSASVGDRVTITCRASQGIGNFLAWYQQKPGKAPKLLISGASTLQSWVPSRFSGRGSGTEFTLTISSLQPEDFATYYCQQLNRYPPYTFGQGTKLEIK
B20: g060f10 (Fab, V domains shown)
VH: B19 VH with Q3T, Q5K, S23T, D56G, P83L, T86A, A91V
VL: B19 VL with L4M
B21: g060f11 (Fab, V domains shown)
VH: EVQLVQSGGGVVRPGGSLRLSCAGSGFTFDEYAMSWVRQAPGKGLEWVAFINWNGDSTYYADSVKGRFTVSRTNAKNSLYLQMNSLRAEDTAFYYCARDPRTKLGMSYFDYWGQGTLVTVS
VL: EIVMTQSPSSLSASVGDRVTITCRASQTISNHLNWYQQKPGRAPKLLIYVGSSLQSGVPSRFSGSGSGTDFTLTISGLQPEDFATYYCQQSYSPSYTFGQGTKVEIK
B22: g060g12 (Fab, V domains shown)
VH: B21 VH with E46K, T73S, Y95C
VL: B21 VL with E1D, V3Q, Q55R
B23: g060g03 (Fab, V domains shown)
VH: EVQLVQSGPEVKKPGASVRVSCKASGYSLKNYGIHWVRQAPGQGLEWMGWISADNGDTTTALNLRGRVSMTTDTSTNTVYMEVKSLRSDDTAIYFCARDFYSGSYRSFDYWGQGTLVTVS
VL: DVVMTQSPSSLSASLGDRVTITCRASQHISNYLNWYQQKPGKAPKLLIYAASSLQSGVPSRFTGSGSGADYTLTISSLQPEDFATYYCQQSYSTSWTFGQGTTVGIK
B24: g060a01 (Fab, V domains shown)
VH: B23 VH with E1Q, L29F, Y110C
VL: B23 VL with D1E, V2I, M4L, Y49C, G105E

The assay concerns the target T1, Ovalbumin. The assay is described as follows: ELISA, periplasmic extract on coated Ovalbumin. A general note: In an ELISA, binding on a coated surface is turned into a signal by an enzyme label.
For the molecule B1, the binding result is on record as “no binding (tested: 10 µg/ml Ovalbumin coat)”.
The result for B2 reads “no binding (tested: 10 µg/ml Ovalbumin coat)”; that for B3, “no binding (tested: 10 µg/ml Ovalbumin coat)”; that for B4, “no binding (tested: 10 µg/ml Ovalbumin coat)”.
The result for B5 reads “no binding (tested: 10 µg/ml Ovalbumin coat)”; that for B6, “no binding (tested: 10 µg/ml Ovalbumin coat)”; that for B7, “no binding (tested: 10 µg/ml Ovalbumin coat)”.
The result for B8 reads “no binding (tested: 10 µg/ml Ovalbumin coat)”.
For B9, the binding result is given as “no binding (tested: 10 µg/ml Ovalbumin coat)”.
As for B10, the binding result was “no binding (tested: 10 µg/ml Ovalbumin coat)”.
To B11 belongs “no binding (tested: 10 µg/ml Ovalbumin coat)”; to B12, “no binding (tested: 10 µg/ml Ovalbumin coat)”.
The result for B13 reads “no binding (tested: 10 µg/ml Ovalbumin coat)”; that for B14, “no binding (tested: 10 µg/ml Ovalbumin coat)”; that for B15, “no binding (tested: 10 µg/ml Ovalbumin coat)”.
The result for B16 reads “no binding (tested: 10 µg/ml Ovalbumin coat)”; that for B17, “no binding (tested: 10 µg/ml Ovalbumin coat)”.
Regarding B18, the binding result is recorded as “no binding (tested: 10 µg/ml Ovalbumin coat)”.
To B19 belongs “no binding (tested: 10 µg/ml Ovalbumin coat)”.
To B20 belongs “no binding (tested: 10 µg/ml Ovalbumin coat)”; to B21, “no binding (tested: 10 µg/ml Ovalbumin coat)”; to B22, “no binding (tested: 10 µg/ml Ovalbumin coat)”.
To B23 belongs “no binding (tested: 10 µg/ml Ovalbumin coat)”; to B24, “no binding (tested: 10 µg/ml Ovalbumin coat)”.

Values taken from US20070141048A1 (SYMPHOGEN A S, published 2007).
